Targets include RagA-RagC(D205A) (human) (UniProt Q7L523); RagA-RagC(D201A) (human) (UniProt Q7L523); RagA-RagC(D201R) (human) (UniProt Q7L523); RagA-RagC(D205K) (human) (UniProt Q7L523).
The target of assay [1] is RagA-RagC(D201A, D205A) (human) (UniProt Q7L523).
For assay [2], the target named is Rag GTPase heterodimer (RagA-RagC), wild type (human) (UniProt Q7L523).
Assay [3] shares this target. The source holds these as a separate data set.
Assay [4] concerns the target RagA-RagC(D201R, D205K) (human) (UniProt Q7L523).

As to “GATOR1[Depdc5(Y775A)] (from UniProt O75140 1-1603; Q8WTW4 1-380; Q12980 1-569) (complex)”, the kcat/KM of GATOR1[Depdc5(Y775A)]-stimulated multiple turnover GTP hydrolysis, fold decrease against wild-type Rag GTPases (fold decrease) stood at 4 with RagA-RagC(D205A) (human); 7 in assay [1]; 2 with RagA-RagC(D201A) (human); 7 in the assay with RagA-RagC(D201R) (human); 22 in the assay with RagA-RagC(D205K) (human); 80 in assay [4]. In addition, the kcat of GATOR1-stimulated single turnover GTP hydrolysis by the Rag GTPase heterodimer (singly loaded with GTP) in assay [2] was determined as 0.000267 s⁻¹. In addition, the kcat of GATOR1-stimulated multiple turnover GTP hydrolysis by the Rag GTPase heterodimer (dual-loaded with GTP) in assay [3] was determined as 0.00183 s⁻¹.

With “GATOR1[Depdc5(Y775A, R1407D)] (from UniProt O75140 1-1603; Q8WTW4 1-380; Q12980 1-569) (complex)”, the kcat of GATOR1-stimulated single turnover GTP hydrolysis by the Rag GTPase heterodimer (singly loaded with GTP) in assay [2] is 0.00015 s⁻¹. In assay [3], the KM of GATOR1-stimulated multiple turnover GTP hydrolysis, fold increase against GATOR1[Depdc5(Y775A)] (fold increase) was determined as 8; the kcat of GATOR1-stimulated multiple turnover GTP hydrolysis, fold decrease against GATOR1[Depdc5(Y775A)] (fold decrease) was 8; the kcat/KM of GATOR1-stimulated multiple turnover GTP hydrolysis, fold decrease against GATOR1[Depdc5(Y775A)] (fold decrease) was 64.

(Values after article PMC10316081.)
